Assay results as given in patent US10800847.

Assays:
HLA-B*3501 (B35) (human) = assay: Luminex single-antigen beads (iBeads), culture supernatant
HLA-B*3701 (B37) (human) = assay: as above
HLA-B*3801 (B38) (human) = assay: as above
HLA-B*3901 (B39) (human) = assay: as above
HLA-B*4001 (B60) (human) = assay: as above
HLA-B*4002 (B61) (human) = assay: as above
HLA-B*4006 (B61) (human) = assay: as above
HLA-B*4101 (B41) (human) = assay: as above
HLA-B*4201 (B42) (human) = assay: as above
HLA-B*4402 (B44) (human) = assay: as above
HLA-B*4403 (B44) (human) = assay: as above
HLA-B*4501 (B45) (human) = assay: as above
HLA-B*4601 (B46) (human) = assay: as above
HLA-B*4701 (B47) (human) = assay: as above
HLA-B*4801 (B48) (human) = assay: as above
HLA-B*4901 (B49) (human) = assay: as above
HLA-B*5001 (B50) (human) = assay: as above
HLA-B*5101 (B51) (human) = assay: as above
[1] = target: HLA-A*0101 (A1) single antigen bead (human); assay: Luminex single antigen bead assay (IBEADS), culture supernatant
[2] = target: HLA-A*0201 (A2) single antigen bead (human); assay: as above
[3] = target: HLA-A*0203 (A2) single antigen bead (human); assay: as above
[4] = target: HLA-A*0206 (A2) single antigen bead (human); assay: as above
[5] = target: HLA-A*0301 (A3) single antigen bead (human); assay: as above
[6] = target: HLA-A*1101 (A11) single antigen bead (human); assay: as above
[7] = target: HLA-A*1102 (A11) single antigen bead (human); assay: as above
[8] = target: HLA-A*2301 (A23) single antigen bead (human); assay: as above
[9] = target: HLA-A*2402 (A24) single antigen bead (human); assay: as above
[10] = target: HLA-A*2403 (A24) single antigen bead (human); assay: as above
[11] = target: HLA-A*2501 (A25) single antigen bead (human); assay: as above
[12] = target: HLA-A*2601 (A26) single antigen bead (human); assay: as above
[13] = target: HLA-A*2901 (A29) single antigen bead (human); assay: as above
[14] = target: HLA-A*2902 (A29) single antigen bead (human); assay: as above
[15] = target: HLA-A*3001 (A30) single antigen bead (human); assay: as above
[16] = target: HLA-A*3002 (A30) single antigen bead (human); assay: as above
[17] = target: Negative control beads coated with serum albumin (HSA/BSA) (human or bovine); assay: as above

TFL Anti-HLA-E Mab PTG-006 (antibody)
MFI (HLA-B*3501 (B35) (human)): 60 MFI | MFI (HLA-B*3701 (B37) (human)): 43 MFI | MFI (HLA-B*3801 (B38) (human)): 24 MFI | MFI (HLA-B*3901 (B39) (human)): 21 MFI | MFI (HLA-B*4001 (B60) (human)): 28 MFI | MFI (HLA-B*4002 (B61) (human)): 33 MFI | MFI (HLA-B*4006 (B61) (human)): 41 MFI | MFI (HLA-B*4101 (B41) (human)): 89 MFI | MFI (HLA-B*4201 (B42) (human)): 32 MFI | MFI (HLA-B*4402 (B44) (human)): 32 MFI | MFI (HLA-B*4403 (B44) (human)): 18 MFI | MFI (HLA-B*4501 (B45) (human)): 18 MFI | MFI (HLA-B*4601 (B46) (human)): 23 MFI | MFI (HLA-B*4701 (B47) (human)): 38 MFI | MFI (HLA-B*4801 (B48) (human)): 21 MFI | MFI (HLA-B*4901 (B49) (human)): 71 MFI | MFI (HLA-B*5001 (B50) (human)): 67 MFI | MFI (HLA-B*5101 (B51) (human)): 45 MFI | MFI [1]: 28 MFI | MFI [2]: 31 MFI | MFI [3]: 31 MFI | MFI [4]: 27 MFI | MFI [5]: 36 MFI | MFI [6]: 51 MFI | MFI [7]: 60 MFI | MFI [8]: 36 MFI | MFI [9]: 42 MFI | MFI [10]: 53 MFI | MFI [11]: 24 MFI | MFI [12]: 57 MFI | MFI [13]: 115 MFI | MFI [14]: 23 MFI | MFI [15]: 45 MFI | MFI [16]: 69 MFI | MFI [17]: 6 MFI
